We go through three molecules from US20220259283A1 (AARHUS UNIVERSITET, published 2022).

To fix the notation:
B1: hPGRN-6his (human progranulin with a C-terminal 6his-tag) (ligand)
chain: TRCPDGQFCPVACCLDPGGASYSCCRPLLDKWPTTLSRHLGGPCQVDAHCSAGHSCIFTVSGTSSCCPFPEAVACGDGHHCCPRGFHCSADGRSCFQRSGNNSVGAIQCPDSQFECPDFSTCCVMVDGSWGCCPMPQASCCEDRVHCCPHGAFCDLVHTRCITPTGTHPLAKKLPAQRTNRAVALSSSVMCPDARSRCPDGSTCCELPSGKYGCCPMPNATCCSDHLHCCPQDTVCDLIQSKCLSKENATTDLLTKLPAHTVGDVKCDMEVSCPDGYTCCRLQSGAWGCCPFTQAVCCEDHIHCCPAGFTCDTQKGTCEQGPHQVPWMEKAPAHLSLPDPQALKRDVPCDNVSSCPSSDTCCQLTSGEWGCCPIPEAVCCSDHQHCCPQGYTCVAEGQCQRGSEIVAGLEKMPARRASLSHPRDIGCDQHTSCPVGQTCCPSLGGSWACCQLPHAVCCEDRQHCCPAGYTCNVKARSCEKEVVSAQPATFLARSPHVGVKDVECGEGHFCHDNQTCCRDNRQGWACCPYRQGVCCADRRHCCPAGFRCAARGTKCLRREAPRWDAPLRDPALRQLLHHHHHH
notes: Purified protein; also called progranulin-6his; human progranulin-6his

The target of assay [1] is T1, hSorCS2-6his (extracellular domain of human SorCS2 with a C-terminal 6His-tag) (human, UniProt Q96PQ0 51-1076).
T1 construct: Made in CHO-K1 cells and purified from the medium; For crystallisation the protein was deglycosylated with PNGaseF; also called soluble human SorCS2; hSorCS2 extracellular domain
T1 sequence (Q96PQ0 other isoform, or with tags, fused parts or gaps): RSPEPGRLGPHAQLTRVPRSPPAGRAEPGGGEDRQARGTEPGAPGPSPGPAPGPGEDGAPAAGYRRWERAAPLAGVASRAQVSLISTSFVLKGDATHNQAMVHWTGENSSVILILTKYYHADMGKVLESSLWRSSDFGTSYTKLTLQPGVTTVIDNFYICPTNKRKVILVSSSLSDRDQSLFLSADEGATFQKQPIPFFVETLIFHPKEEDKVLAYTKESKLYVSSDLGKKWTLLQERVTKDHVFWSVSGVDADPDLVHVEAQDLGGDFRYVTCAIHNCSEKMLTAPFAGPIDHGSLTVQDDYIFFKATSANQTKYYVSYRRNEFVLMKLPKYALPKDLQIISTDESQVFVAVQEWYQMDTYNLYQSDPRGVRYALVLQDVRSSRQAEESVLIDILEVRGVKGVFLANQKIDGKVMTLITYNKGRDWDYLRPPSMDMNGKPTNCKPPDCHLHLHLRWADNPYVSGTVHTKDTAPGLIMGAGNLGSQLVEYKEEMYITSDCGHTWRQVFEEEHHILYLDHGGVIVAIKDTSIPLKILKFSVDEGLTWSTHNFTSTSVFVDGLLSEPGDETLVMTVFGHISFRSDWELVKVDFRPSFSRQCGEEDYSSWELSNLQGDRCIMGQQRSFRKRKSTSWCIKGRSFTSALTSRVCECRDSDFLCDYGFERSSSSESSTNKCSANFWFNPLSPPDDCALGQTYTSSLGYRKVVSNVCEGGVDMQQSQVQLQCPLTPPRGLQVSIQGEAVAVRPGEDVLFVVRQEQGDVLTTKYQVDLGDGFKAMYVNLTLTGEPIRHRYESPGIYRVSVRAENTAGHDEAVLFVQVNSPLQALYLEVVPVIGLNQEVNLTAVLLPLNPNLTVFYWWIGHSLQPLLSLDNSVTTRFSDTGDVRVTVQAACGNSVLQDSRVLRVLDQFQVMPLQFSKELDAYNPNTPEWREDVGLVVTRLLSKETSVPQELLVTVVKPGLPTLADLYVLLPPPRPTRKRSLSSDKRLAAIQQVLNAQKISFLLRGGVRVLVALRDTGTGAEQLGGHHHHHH
The experiment in a line: SPR, hPGRN-6his injected over hSorCS2-6his immobilized on a CM5 chip. On the procedure: (§1) Purified hPGRN-6his or hSorCS2-6his was immobilized on a CM5 sensor chip using standard amine-coupling. All sensograms were collected in PBS+0.05% Tween20 following injection of purified hPGRN-6his over immobilized hSorCS2-6his or hSortilin-6his and hSorCS2-6his with/without PGRN derived peptide over immobilized hPGRN-6his. Following this experimental setup we estimated the dissociation constant of the hSorCS2:hPGRN interaction to be 15 nM (FIG. 4). […] Inhibition experiments was performed using 100 nM hSorCS2 preincubated with 100 uM PGRN-derived tetra peptide and injected over immobilized hPGRN-6his (FIG. 7).
On the technique in general: SPR reads the build-up and loss of mass on a sensor chip optically.

For assay [2], the target named is T1, hSorCS2-6his (extracellular domain of …). In words: SPR, hSorCS2-6his injected over hPGRN-6his immobilized on a CM5 chip. How it is done:
as §1

Assay [3] shares this target. The experiment in a line: microscale thermophoresis, 25 nM labelled hSorCS2-6his, partner titrated, triplicates. How it is done: Equilibrium-binding affinities between hSorCS2 and hPGRN-6his, GrnE and RQLL peptide were assessed by MST. Purified hSorCS2-6his was labelled using the MO-003 monolith blue-NHS labelling kit according to manufactures recommendation. hSorCS2 was applied at a final concentration of 25 nM while the unlabelled binding partner was titrated in 1:1 dilutions (PBS+0.05% Tween20). MST measurements were performed in standard treated capilaiers on a monolith NT.115 instrument. For each binding partner the sigmoid-dose response curve was fitted with GraphPad prism 6 to yield an average dissociation constant.
(MST reads how a fluorescent partner responds to local heating, with and without ligand.)

Assay [4] deals with T2, sortilin (human, UniProt Q99523).
T2 construct: soluble, 6his-tagged; Injected at 25-250 nM over immobilized progranulin-6his as a comparison with SorCS2; also called hSortilin-6his; soluble human sortilin
T2 sequence (receptor, soluble form, looked up): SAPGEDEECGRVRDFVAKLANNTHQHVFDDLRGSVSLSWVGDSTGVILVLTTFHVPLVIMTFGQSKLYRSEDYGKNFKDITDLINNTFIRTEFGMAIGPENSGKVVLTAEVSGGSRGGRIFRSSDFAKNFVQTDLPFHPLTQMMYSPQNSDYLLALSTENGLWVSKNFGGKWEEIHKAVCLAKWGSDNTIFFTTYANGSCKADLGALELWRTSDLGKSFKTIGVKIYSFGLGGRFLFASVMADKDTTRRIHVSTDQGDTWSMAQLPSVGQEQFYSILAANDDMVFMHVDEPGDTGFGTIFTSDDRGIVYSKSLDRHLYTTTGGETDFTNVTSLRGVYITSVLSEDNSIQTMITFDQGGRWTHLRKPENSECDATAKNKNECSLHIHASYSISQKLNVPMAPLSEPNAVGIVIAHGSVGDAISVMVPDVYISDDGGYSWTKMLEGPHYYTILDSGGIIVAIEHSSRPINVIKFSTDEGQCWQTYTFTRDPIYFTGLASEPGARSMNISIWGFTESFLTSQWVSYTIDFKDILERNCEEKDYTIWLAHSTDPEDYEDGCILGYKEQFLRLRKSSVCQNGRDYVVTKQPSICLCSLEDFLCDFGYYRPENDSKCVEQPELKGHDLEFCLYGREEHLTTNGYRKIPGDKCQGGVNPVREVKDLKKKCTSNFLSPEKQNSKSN
The experiment in a line: SPR, soluble human sortilin injected over immobilized C-terminal his-tagged progranulin on a CM5 chip. How it is done:
as §1

Assay [5] addresses B1. In words: SPR, RQLL peptide alone injected over immobilized C-terminal his-tagged progranulin on a CM5 chip (control trace of the competition experiment). On the procedure: as §1

Turning to B1, the Kd – broadly, the concentration at which binding is half-saturated – was 15 nM in assay [1], 7.4 nM in assay [2] and 47.8 nM in assay [3]. Also, the binding result in assay [4] is on record as “no binding (tested: 250 nM)”.

B2: tetrapeptide RQLL (peptide)
peptide: RQLL
notes: also called RQLL peptide; PGRN-derived tetra peptide
In assay [3], B2 came in with a Kd of 1000 nM. Also, in assay [5], the binding result was “no binding (tested: 100 uM)”.

B3: Granulin E (ligand, UniProt P28799 518-593, looked up)
chain: DVECGEGHFCHDNQTCCRDNRQGWACCPYRQGVCCADRRHCCPAGFRCAARGTKCLRREAPRWDAPLRDPALRQLL
notes: domain: Granulin E; also called GrnE
Turning to B3, the Kd in assay [3] was found to be 2000 nM.
